Results: patent US7226755

T1: recombinant GST fusion of the Tie-2 intracellular kinase domain
T1 chain: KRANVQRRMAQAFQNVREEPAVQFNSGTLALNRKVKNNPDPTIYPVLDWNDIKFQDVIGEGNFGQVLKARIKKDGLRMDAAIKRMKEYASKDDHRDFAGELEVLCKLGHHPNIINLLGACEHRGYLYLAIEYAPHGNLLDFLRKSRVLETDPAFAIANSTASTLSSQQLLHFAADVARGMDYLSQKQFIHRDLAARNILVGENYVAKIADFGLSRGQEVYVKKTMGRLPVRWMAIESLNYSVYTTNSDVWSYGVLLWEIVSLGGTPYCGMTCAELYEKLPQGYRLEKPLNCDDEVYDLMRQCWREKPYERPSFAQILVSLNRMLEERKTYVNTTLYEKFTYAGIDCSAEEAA

B1: recombinant HPTPbeta catalytic domain (protein)
chain: GDRPLSVHLNLGQKGNRKTSCPIKINQFEGHFMKLQADSNYLLSKEYEELKDVGRNQSCDIALLPENRGKNRYNNILPYDATRVKLSNVDDDPCSDYINASYIPGNNFRREYIVTQGPLPGTKDDFWKMVWEQNVHNIVMVTQCVEKGRVKCDHYWPADQDSLYYGDLILQMLSESVLPEWTIREFKICGEEQLDAHRLIRHFHYTVWPDHGVPETTQSLIQFVRTVRDYINRSPGAGPTVVHCSAGVGRTGTFIALDRILQQLDSKDSVDIYGAVHDLRLHRVHMVQTECQYVYLHQCVRDVLRARKLRSEQHHHHHH
B2: full length HPTPbeta protein (splice variant lacking FNIII repeat 5) (protein)
chain: EPERCNFTLAESKASSHSVSIQWRILGSPCNFSLIYSSDTLGAALCPTFRIDNTTYGCNLQDLQAGTIYNFKIISLDEERTVVLQTDPLPPARFGVSKEKTTSTGLHVWWTPSSGKVTSYEVQLFDENNQKIQGVQIQESTSWNEYTFFNLTAGSKYNIAITAVSGGKRSFSVYTNGSTVPSPVKDIGISTKANSLLISWSHGSGNVERYRLMLMDKGILVHGGVVDKHATSYAFHGLTPGYLYNLTVMTEAAGLQNYRWKLVRTAPMEVSNLKVTNDGSLTSLKVKWQRPPGNVDSYNITLSHKGTIKESRVLAPWITETHFKELVPGRLYQVTVSCVSGELSAQKMAVGRTFPLAVLQLRVKHANETSLSIMWQTPVAEWEKYIISLADRDLLLIHKSLSKDAKEFTFTDLVPGRKYMATVTSISGDLKNSSSVKGRTVPAQVTDLHVANQGMTSSLFTNWTQAQGDVEFYQVLLIHENVVIKNESISSETSRYSFHSLKSGSLYSVVVTTVSGGISSRQVVVEGRTVPSSVSGVTVNNSGRNDYLSVSWLLAPGDVDNYEVTLSHDGKVVQSLVIAKSVRECSFSSLTPGRLYTVTITTRSGKYENHSFSQERTVPDKVQGVSVSNSARSDYLRVSWVHATGDFDHYEVTIKNKNNFIQTKSIPKSENECVFVQLVPGRLYSVTVTTKSGQYEANEQGNGRTIPEPVKDLTLRNRSTEDLHVTWSGANGDVDQYEIQLLFNDMKVFPPFHLVNTATEYRFTSLTPGRQYKILVLTISGDVQQSAFIEGFTVPSAVKNIHISPNGATDSLTVNWTPGGGDVDSYTVSAFRHSQKVDSQTIPKHVFEHTFHRLEAGEQYQIMIASVSGSLKNQINVVGRTVPASVQGVIADNAYSSYSLIVSWQKAAGVAERYDILLLTENGILLRNTSEPATTKQHKFEDLTPGKKYKIQILTVSGGLFSKEAQTEGRTVPAAVTDLRITENSTRHLSFRWTASEGELSWYNIFLYNPDGNLQERAQVDPLVQSFSFQNLLQGRMYKMVIVTHSGELSNESFIFGRTVPASVSHLRGSNRNTTDSLWFNWSPASGDFDFYELILYNPNGTKKENWKDKDLTEWRFQGLVPGRKYVLWVVTHSGDLSNKVTAESRTAPSPPSLMSFADIANTSLAITWKGPPDWTDYNDFELQWLPRDALTVFNPYNNRKSEGRIVYGLRPGRSYQFNVKTVSGDSWKTYSKPIFGSVRTKPDKIQNLHCRPQNSTAIACSWIPPDSDFDGYSIECRKMDTQEVEFSRKLEKEKSLLNIMMLVPHKRYLVSIKVQSAGMTSEVVEDSTITMIDRPPPPPPHIRVNEKDVLISKSSINFTVNCSWFSDTNGAVKYFTVVVREADGSDELKPEQQHPLPSYLEYRHNASIRVYQTNYFASKCAENPNSNSKSFNIKLGAEMESLGGKCDPTQQKFCDGPLKPHTAYRISIRAFTQLFDEDLKEFTKPLYSDTFFSLPITTESEPLFGAIEGVSAGLFLIGMLVAVVALLICRQKVSHGRERPSARLSIRRDRPLSVHLNLGQKGNRKTSCPIKINQFEGHFMKLQADSNYLLSKEYEELKDVGRNQSCDIALLPENRGKNRYNNILPYDATRVKLSNVDDDPCSDYINASYIPGNNFRREYIVTQGPLPGTKDDFWKMVWEQNVHNIVMVTQCVEKGRVKCDHYWPADQDSLYYGDLILQMLSESVLPEWTIREFKICGEEQLDAHRLIRHFHYTVWPDHGVPETTQSLIQFVRTVRDYINRSPGAGPTVVHCSAGVGRTGTFIALDRILQQLDSKDSVDIYGAVHDLRLHRVHMVQTECQYVYLHQCVRDVLRARKLRSEQENPLFPIYENVNPEYHRDPVYSRH

How the values were obtained:
[1] = molecular target: recombinant GST fusion of the VEGFR2 intracellular kinase domain
[2] = molecular target: T1, recombinant GST fusion of the Tie-2 …
[3] = molecular target: full length human Tie-2 receptor
[4] = molecular target: full length human VEGF receptor type 2 (VEGFR2)
full length human VEGF receptor type 2 (VEGFR2), sequence (chain, as listed by the source): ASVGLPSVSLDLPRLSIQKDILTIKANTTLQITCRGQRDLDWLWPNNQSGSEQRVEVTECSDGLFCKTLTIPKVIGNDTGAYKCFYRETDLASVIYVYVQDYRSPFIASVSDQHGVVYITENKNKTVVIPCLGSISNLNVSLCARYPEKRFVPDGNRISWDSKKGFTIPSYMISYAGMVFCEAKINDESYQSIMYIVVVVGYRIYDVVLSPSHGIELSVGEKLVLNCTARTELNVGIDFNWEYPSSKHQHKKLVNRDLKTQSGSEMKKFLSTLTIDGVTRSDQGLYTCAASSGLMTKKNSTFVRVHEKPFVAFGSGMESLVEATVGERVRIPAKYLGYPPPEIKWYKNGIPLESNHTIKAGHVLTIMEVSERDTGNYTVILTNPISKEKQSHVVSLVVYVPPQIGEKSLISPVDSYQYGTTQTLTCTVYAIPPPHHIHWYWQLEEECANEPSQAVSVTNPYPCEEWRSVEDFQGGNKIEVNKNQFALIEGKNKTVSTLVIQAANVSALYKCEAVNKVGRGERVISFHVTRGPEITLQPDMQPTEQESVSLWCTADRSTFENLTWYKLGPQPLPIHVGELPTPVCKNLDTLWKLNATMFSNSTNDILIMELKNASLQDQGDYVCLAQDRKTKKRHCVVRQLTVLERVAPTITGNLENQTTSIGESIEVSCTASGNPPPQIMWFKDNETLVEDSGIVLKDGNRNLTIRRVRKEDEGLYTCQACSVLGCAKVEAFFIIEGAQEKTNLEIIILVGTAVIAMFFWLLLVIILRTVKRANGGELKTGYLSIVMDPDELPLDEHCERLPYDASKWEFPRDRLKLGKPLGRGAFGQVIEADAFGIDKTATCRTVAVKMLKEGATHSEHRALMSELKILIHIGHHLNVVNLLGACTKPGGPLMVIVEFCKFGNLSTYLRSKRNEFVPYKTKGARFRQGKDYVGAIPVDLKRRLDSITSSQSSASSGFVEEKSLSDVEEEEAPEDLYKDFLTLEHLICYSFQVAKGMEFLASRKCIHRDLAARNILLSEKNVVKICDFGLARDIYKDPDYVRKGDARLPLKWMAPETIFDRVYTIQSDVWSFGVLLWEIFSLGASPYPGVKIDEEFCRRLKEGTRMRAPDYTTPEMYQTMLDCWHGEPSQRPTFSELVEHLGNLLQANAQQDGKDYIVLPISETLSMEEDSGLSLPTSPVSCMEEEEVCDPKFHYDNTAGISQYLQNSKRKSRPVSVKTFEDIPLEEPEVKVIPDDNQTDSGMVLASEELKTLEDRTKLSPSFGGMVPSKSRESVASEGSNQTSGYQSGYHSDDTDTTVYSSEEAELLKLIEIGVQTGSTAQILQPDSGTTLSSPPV

recombinant GST fusion of the VEGFR2 intracellular kinase domain, sequence (chain, as listed by the source): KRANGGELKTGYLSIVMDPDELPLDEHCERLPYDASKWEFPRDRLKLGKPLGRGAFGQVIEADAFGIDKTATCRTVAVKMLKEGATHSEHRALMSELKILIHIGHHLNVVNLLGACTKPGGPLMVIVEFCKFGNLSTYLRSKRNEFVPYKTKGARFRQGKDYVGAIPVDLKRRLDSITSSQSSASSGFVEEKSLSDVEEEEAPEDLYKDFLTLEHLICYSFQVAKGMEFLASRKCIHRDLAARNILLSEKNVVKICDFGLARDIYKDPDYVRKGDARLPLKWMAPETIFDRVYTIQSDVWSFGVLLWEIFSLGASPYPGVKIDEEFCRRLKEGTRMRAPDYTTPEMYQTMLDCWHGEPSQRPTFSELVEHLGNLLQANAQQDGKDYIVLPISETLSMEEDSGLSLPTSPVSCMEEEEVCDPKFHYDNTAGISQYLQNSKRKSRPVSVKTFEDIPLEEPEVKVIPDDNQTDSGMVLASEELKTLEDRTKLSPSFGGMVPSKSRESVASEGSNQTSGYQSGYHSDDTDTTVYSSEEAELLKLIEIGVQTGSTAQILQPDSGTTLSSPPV

Protein | anti-phosphotyrosine western blotting of the bead-bound autophosphorylated kinase domain after 2 hours at 37 C with increasing amounts of recombinant HPTPbeta [1] | anti-phosphotyrosine western blotting of the bead-bound autophosphorylated kinase domain after 2 hours at 37 C with increasing amounts of recombinant HPTPbeta [2] | ligand-induced phosphorylation of the endogenous receptor (anti-phosphotyrosine western blot of immunoprecipitated receptor) in Ang1 stimulated HUVECs [3] | ligand-induced phosphorylation of the endogenous receptor (anti-phosphotyrosine western blot of immunoprecipitated receptor) in VEGFA stimulated HUVECs [4]
B1 | a dose dependent decrease in the phosphorylation of recombinant VEGFR2 and Tie-2 | a dose dependent decrease in the phosphorylation of recombinant VEGFR2 and Tie-2 | – | –
B2 | – | – | adenoviral overexpression of HPTPbeta in endothelial cells decreased in ligand-induced phosphorylation of the endogenous VEGFR2 and Tie-2 receptors | adenoviral overexpression of HPTPbeta in endothelial cells decreased in ligand-induced phosphorylation of the endogenous VEGFR2 and Tie-2 receptors
